Reference: PMC9381478 (Cellular and Molecular Life Sciences: CMLS, 2022)

T1: Spd1 (full-length) (S. pombe, UniProt Q10585 1-124)
T1 construct: Spd1 of S. pombe; also called 15N-Spd1
T1 sequence (looked up): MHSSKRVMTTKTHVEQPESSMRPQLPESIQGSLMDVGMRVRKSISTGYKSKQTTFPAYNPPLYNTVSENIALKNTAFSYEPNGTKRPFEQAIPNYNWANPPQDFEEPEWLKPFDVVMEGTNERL

B1: S. pombe ubiquitin with an N-terminal 6xhistidine-tag, TEV-cleavage site and an N-terminal free cysteine (natural protein)
chain: not shown
notes: ubiquitin of S. pombe, the cut product of its precursors; An added free cysteine stands N-terminal of ubiquitin together with the tag and the TEV linker; Used 15N-labelled or unlabelled; also called 15N-labeled ubiquitin; 15N-ubiquitin; source: E. coli BL21(DE3), purified (nickel Sepharose, SEC); not shown: His6, N-terminal, kept; TEV cleavage site, N-terminal, kept

These binders were tested against T1, Spd1 (full-length) (assay: NMR titration; 30 µM 15N-Spd1 with 560 µM ubiquitin added; CSPs mapped on Spd1). Conditions: both partners purified.

binding result	Binder
binds	B1

The binders below were run against B1 (assay: NMR titration; 100 µM 15N-ubiquitin, unlabelled peptide or protein added or titrated (peptides to 1 mM, WT Dss1 peptide to 5 mM); 20 mM NaH2PO4, 150 mM NaCl, 5 mM TCEP, pH 7.5; CSPs of 1H-15N-HSQC, global fit to a one-site model). Conditions: both partners purified.

Kd	Binder
3000 ± 200 µM	Ac-GDDTLWENNWDDEDI-NH2 (also called WT Dss1 peptide; UBS1 from Dss1; source: synthetic peptide, bought: TAG Copenhagen) [wild-type Dss1 peptide]
1300 ± 120 µM	Ac-DLWENNWDLWENNWD-NH2 (core motif WENNW of S. pombe Dss1 (O14140) repeated; also called double motif; Pep43 (as soluble peptide); source: synthetic peptide, bought: TAG Copenhagen) [PepDM]
1200 ± 90 µM	Ac-DDTLWWENNWWDDED-NH2 (UBS1 of S. pombe Dss1 (O14140) with two extra tryptophans; also called double tryptophan; Pep42 (as soluble peptide); source: synthetic peptide, bought: TAG Copenhagen) [PepDW]
380 ± 40 µM	Dss1 N71C (mentioned as "Dss1 WT") (natural protein, S. pombe, UniProt O14140 1-71, looked up, Dss1 (deleted in split hand/split foot 1) of S. pombe; Used unlabelled, 15N- or 13C,15N-labelled; also called full-length Dss1; WT Dss1; source: E. coli BL21(DE3), purified (nickel Sepharose, ULP1 cleavage, reversed phase); not shown: His6-SUMO, N-terminal, cleaved) MSRAALPSLENLEDDDEFEDFATENWPMKDTELDTGDDTLWENNWDDEDIGDDDFSVQLQAELKKKGVAAC
480 ± 40 µM	Ac-DLWEDDWDLWEDDWD-NH2 (PepDM with the asparagines of the core substituted with aspartates; also called DMD peptide; source: synthetic peptide, bought: TAG Copenhagen) [PepDMD]
600 ± 30 µM	Ac-DDTLWWEDDWWDDED-NH2 (PepDW with the two asparagines of the core substituted with aspartates; also called DWD peptide; source: synthetic peptide, bought: TAG Copenhagen) [PepDWD]
